Results: PMC12607393

Legend:
[1] = biological target: Galactia lindenii Type I lectin (GLL-I) (Galactia lindenii); assay: SDS-PAGE of unheated sample; purified GLL-I (15 ug per lane) in SDS without heating, with or without DTT; Coomassie staining
[2] = biological target: Galactia lindenii Type I lectin (GLL-I) (Galactia lindenii); assay: SDS-PAGE of heated sample; purified GLL-I (15 ug per lane) in SDS + DTT with heating (reducing conditions); Coomassie staining

## Galactia lindenii Type I lectin (GLL-I) (natural protein)
[1]
  stoichiometry N: 4
[2]
  stoichiometry N: 2
